Experimental data as given in patent publication US20100158927A1.

Biological target: HLA-A2 molecules on the cell surface (total) (human)
Experiment: flow cytometry on 501A melanoma cells, PE-conjugated BB7.2

## anti-HLA-A2 mAb BB7.2 (antibody)
  MFI: 56.4 MFI
